Source: PMC9828337

Key:
Assay in all cases: MST
[1] = biological target: CurKC lyase domain (residues 1–217) (Thermomonospora curvata DSM43183)
[2] = biological target: AciKC lyase domain (residues 1–219)
[3] = biological target: CurKC leader recognition domain (LRD, residues 222–309), GB1 tag removed (Thermomonospora curvata DSM43183)
[4] = biological target: CurKC, class III lanthipeptide synthetase from the biosynthesis of curvopeptin (full-length) (Thermomonospora curvata DSM43183)
[5] = biological target: CurKC lyase-kinase didomain (residues 1–489) (Thermomonospora curvata DSM43183)
[6] = biological target: CurKC kinase domain (residues 218–489) (Thermomonospora curvata DSM43183)

AciKC kinase domain (residues 220–495) (domain or fragment)
Kd [1]: 14.8 µM | Kd [2]: 43.9 µM

CurKC leader recognition domain (LRD, residues 222–309), GB1 tag removed (domain or fragment)
Kd [1]: 139 µM

CurKC kinase domain (residues 218–489) (domain or fragment)
Kd [1]: 170 µM | Kd [2]: 209 µM

CurA leader peptide
Kd [3]: 1200 µM | Kd [4]: 5.5 µM | Kd [5]: 84 µM | Kd [6]: 801 µM
